The assay has as its target T1, GST (UniProt P08515 1-218 = GST).
T1 construct: Control for GST-Smad4; also called GST protein
In words: peptide-Sepharose pull-down, anti-GST immunoblot. From the text:
To investigate whether phosphorylated Ser465 and Ser467 of Smad2 are directly involved in heteromeric interaction with Smad4, phosphorylated and non-phosphorylated peptides corresponding to the C-terminus of Smad2 were made and tested for their ability to bind GST-Smad4 fusion proteins. Short C-terminal peptide of Smad2 SSMS (SNp; SEQ ID NO: 3) or its phosphorylated counterpart (SPp), as well as long C-terminal-peptide […] (LNp; SEQ ID NO: 4) or its phosphorylated counterpart (LPp), coupled to CNBr-Sepharose (peptide beads), were incubated with GST or GST-Smad4 fusion protein. For competition large excesses (200 μM) of non-phosphorylated short (SNp) or long (LNp) peptides or their phosphorylated counterpart (SPp and LPp, respectively) were used (block). Proteins bound to the beads, were resolved by SDS-PAGE, transferred to nitrocellulose membrane and immunoblotted with anti-GST antibodies. Migration positions of GST and GST-Smad4 are shown by double arrows. Molecular masses of standard proteins are indicated on the left side on gel in which protein-stained GST and GST-Smad4 are shown. […] The phosphorylated long peptide also bound GST-Smad4 more efficiently, than the non-phosphorylated counterpart, however, a considerable binding was observed also to the long non-phosphorylated peptide.

Where no end group is shown, it is not given here. [ ]: non-standard residue; d: D form. pS = N[C@@H](COP(=O)(O)O)C(=O)O

T1 sequence (P08515 whole entry): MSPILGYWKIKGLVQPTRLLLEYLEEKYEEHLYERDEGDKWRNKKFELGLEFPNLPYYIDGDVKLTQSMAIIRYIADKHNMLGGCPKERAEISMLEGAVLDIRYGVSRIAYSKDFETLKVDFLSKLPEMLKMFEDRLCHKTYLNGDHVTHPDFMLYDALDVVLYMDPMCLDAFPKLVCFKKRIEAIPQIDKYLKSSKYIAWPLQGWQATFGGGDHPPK

B1: short C-terminal peptide of Smad2 SSpMSp, doubly phosphorylated (peptide)
peptide: KKKS[pS]M[pS]
notes: The same phosphopeptide was the immunogen of the Smad2 phospho tail antibody; also called SPp
With B1, the binding result is on record as “no binding”.

Values taken from patent US20020146774A1 (LUDWIG INSTITUTE FOR CANCER RESEARCH, published 2002).
